Values quoted from earlier work in article PMC4059260.
Like-named read-outs stand apart in the source and are kept apart here.

What was measured:
[1] = biological target: VEGF (Homo sapiens) (UniProt P15692)
[2] = biological target: VEGF (Homo sapiens) (UniProt P15692); remark: listed apart in the source

UniProt P15692, sequence (P15692 whole entry): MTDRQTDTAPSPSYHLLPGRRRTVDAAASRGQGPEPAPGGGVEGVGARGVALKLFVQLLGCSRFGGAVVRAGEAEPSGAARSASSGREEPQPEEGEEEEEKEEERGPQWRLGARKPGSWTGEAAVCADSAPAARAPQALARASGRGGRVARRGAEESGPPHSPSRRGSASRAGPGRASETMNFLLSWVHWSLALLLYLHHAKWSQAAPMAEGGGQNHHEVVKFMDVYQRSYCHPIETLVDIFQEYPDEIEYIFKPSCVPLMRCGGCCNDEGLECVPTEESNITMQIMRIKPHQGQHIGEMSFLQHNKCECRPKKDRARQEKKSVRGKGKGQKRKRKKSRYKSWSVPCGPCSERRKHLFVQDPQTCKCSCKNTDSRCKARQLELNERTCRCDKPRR

| Kd [1] | Kd [2] | Substance |
| --- | --- | --- |
| 420 nM |  | alpha-2-macroglobulin (from UniProt P01023) |
|  | 0.001 nM | sFlt-1 (from UniProt P17948) |
